± gives the standard deviation of the averaged measurements.

The subject of data set [1] is Saccharomyces cerevisiae. Put plainly: protein stability index of tFT-peptide fusion (C-terminal peptide) (PSI (0-1 scale)); higher = more stable (slower turnover). Here is the method: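 MPS profiling in S. cerevisiae of the tFT-X12 degron library: putative degron peptides plus stable controls, 12 aa, fused to the C-terminus of a sfGFP-mCherry timer. Cells are FACS-sorted into 8 mCherry/sfGFP bins and deep-sequenced. PSI runs from 0 (unstable) to 1 (stable). Backgrounds are wild type, das1Δ and doa10Δ at 30 °C, and wild type, das1Δ, cdc34-1 and cdc53-1 at 37 °C; 2-3 technical replicates each.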

Data set [2] relates to Saccharomyces cerevisiae. Described as above. Particulars: genetic background: wild type; temperature: 30 C.
Where [3] appears, read: genetic background: cdc34-1, temperature: 37 C.
[4] abbreviates: genetic background: cdc53-1, temperature: 37 C.
Where [5] appears, read: genetic background: das1 deletion, temperature: 30 C.
[6] abbreviates: genetic background: das1 deletion, temperature: 37 C.
[7] abbreviates: genetic background: doa10 deletion, temperature: 30 C.
Setting [8] is: genetic background: wild type, temperature: 30 C.
[9] abbreviates: genetic background: wild type, temperature: 37 C.
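Also: PSI is a weighted mean of sequencing reads over stability bins, variants kept only with over 10 reads, mCherry proximal and sfGFP distal, peptide attached via GGGS linker.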

On to ACACFWVVWVGW, for which the protein stability index in the data set with Saccharomyces cerevisiae [1] (setting [3]) is 0.262 ± 0.027; with Saccharomyces cerevisiae [1] (setting [4]), 0.374 ± 0.021; in the data set with Saccharomyces cerevisiae [1] (setting [5]) it was 0.248 ± 0.024; in the data set on Saccharomyces cerevisiae [1] (setting [6]), 0.4309 ± 0.0018; with Saccharomyces cerevisiae [1] (setting [7]) it was 0.217 ± 0.021; with Saccharomyces cerevisiae [1] (setting [8]) it was 0.238 ± 0.035. Besides, the values for the protein stability index in the data set with Saccharomyces cerevisiae [1] (setting [9]) and in the data set on Saccharomyces cerevisiae [2] were 0.402 ± 0.0083 and 0.378 ± 0.03, respectively.

Take ACEFRFFYVFRC: the protein stability index in the data set on Saccharomyces cerevisiae [1] (setting [3]) came out at 0.304 ± 0.0093; in the data set on Saccharomyces cerevisiae [1] (setting [4]), 0.245 ± 0.016; with Saccharomyces cerevisiae [1] (setting [5]), 0.31 ± 0.056; in the data set on Saccharomyces cerevisiae [1] (setting [6]) it was 0.425 ± 0.015; in the data set on Saccharomyces cerevisiae [1] (setting [7]), 0.278 ± 0.0034; in the data set on Saccharomyces cerevisiae [1] (setting [8]) it was 0.176 ± 0.016. Moreover, the protein stability index with Saccharomyces cerevisiae [1] (setting [9]) worked out at 0.287 ± 0.034; in the data set on Saccharomyces cerevisiae [2], 0.315 ± 0.008.

Turning to AERPVLIIIEFG, the protein stability index came to 0.416 ± 0.039 with Saccharomyces cerevisiae [1] (setting [3]); 0.532 ± 0.064 with Saccharomyces cerevisiae [1] (setting [4]); 0.337 ± 0.031 in the data set on Saccharomyces cerevisiae [1] (setting [5]); 0.5315 ± 0.0052 with Saccharomyces cerevisiae [1] (setting [6]); 0.296 ± 0.015 in the data set on Saccharomyces cerevisiae [1] (setting [7]); 0.339 ± 0.047 with Saccharomyces cerevisiae [1] (setting [8]). The protein stability index in the data set on Saccharomyces cerevisiae [1] (setting [9]) turned out to be 0.5248 ± 0.0013; in the data set on Saccharomyces cerevisiae [2], 0.417 ± 0.027.

AFFCTLCLFLVS: the protein stability index came to 0.44 ± 0.02 in the data set with Saccharomyces cerevisiae [1] (setting [3]); 0.472 ± 0.033 with Saccharomyces cerevisiae [1] (setting [4]); 0.36 ± 0.036 in the data set with Saccharomyces cerevisiae [1] (setting [5]); 0.496 ± 0.012 in the data set on Saccharomyces cerevisiae [1] (setting [6]); 0.3064 ± 0.002 in the data set with Saccharomyces cerevisiae [1] (setting [7]); 0.323 ± 0.037 in the data set on Saccharomyces cerevisiae [1] (setting [8]). The protein stability index in the data set on Saccharomyces cerevisiae [1] (setting [9]) came to 0.478 ± 0.023; in the data set on Saccharomyces cerevisiae [2], 0.402 ± 0.014.

In the case of AFLCVFGFCFFV, the protein stability index in the data set on Saccharomyces cerevisiae [1] (setting [3]) came to 0.423 ± 0.015; in the data set with Saccharomyces cerevisiae [1] (setting [4]), 0.455 ± 0.014; with Saccharomyces cerevisiae [1] (setting [5]), 0.372 ± 0.035; in the data set on Saccharomyces cerevisiae [1] (setting [6]) it was 0.482 ± 0.026; in the data set with Saccharomyces cerevisiae [1] (setting [7]) it was 0.285 ± 0.008; in the data set with Saccharomyces cerevisiae [1] (setting [8]), 0.278 ± 0.019. The protein stability index with Saccharomyces cerevisiae [1] (setting [9]) was 0.407 ± 0.025; in the data set on Saccharomyces cerevisiae [2], 0.339 ± 0.037.

For AFRLRHEIISLM, the protein stability index with Saccharomyces cerevisiae [1] (setting [3]) came out at 0.552 ± 0.081; in the data set with Saccharomyces cerevisiae [1] (setting [4]), 0.726 ± 0.024; with Saccharomyces cerevisiae [1] (setting [5]), 0.63 ± 0.056; in the data set on Saccharomyces cerevisiae [1] (setting [6]) it was 0.744 ± 0.037; in the data set with Saccharomyces cerevisiae [1] (setting [7]), 0.136 ± 0.0049; in the data set on Saccharomyces cerevisiae [1] (setting [8]), 0.139 ± 0.037. Also, the protein stability index amounted to 0.344 ± 0.041 in the data set with Saccharomyces cerevisiae [1] (setting [9]) and 0.282 ± 0.013 in the data set on Saccharomyces cerevisiae [2].

In the case of AGGLLIGSVGVG, the protein stability index in the data set on Saccharomyces cerevisiae [1] (setting [3]) was determined as 0.434 ± 0.013; in the data set on Saccharomyces cerevisiae [1] (setting [4]) it was 0.468 ± 0.0094; in the data set with Saccharomyces cerevisiae [1] (setting [5]), 0.4439 ± 0.0038; in the data set on Saccharomyces cerevisiae [1] (setting [6]) it was 0.468 ± 0.0066; in the data set on Saccharomyces cerevisiae [1] (setting [7]), 0.4523 ± 0.0042; in the data set with Saccharomyces cerevisiae [1] (setting [8]), 0.4436 ± 0.0017. In addition, the protein stability index in the data set on Saccharomyces cerevisiae [1] (setting [9]) is 0.4604 ± 0.0028; in the data set with Saccharomyces cerevisiae [2], 0.45 ± 0.008.

On to AISLPVEVLAFS, for which the protein stability index was 0.4 ± 0.028 in the data set on Saccharomyces cerevisiae [1] (setting [3]); 0.387 ± 0.024 in the data set on Saccharomyces cerevisiae [1] (setting [4]); 0.286 ± 0.051 with Saccharomyces cerevisiae [1] (setting [5]); 0.438 ± 0.022 in the data set on Saccharomyces cerevisiae [1] (setting [6]); 0.255 ± 0.025 in the data set with Saccharomyces cerevisiae [1] (setting [7]); 0.293 ± 0.01 in the data set with Saccharomyces cerevisiae [1] (setting [8]). Besides, the protein stability index came out at 0.439 ± 0.021 in the data set on Saccharomyces cerevisiae [1] (setting [9]) and 0.383 ± 0.048 with Saccharomyces cerevisiae [2].

Turning to AKVSFYALARQY, the protein stability index amounted to 0.665 ± 0.017 in the data set on Saccharomyces cerevisiae [1] (setting [3]); 0.715 ± 0.018 with Saccharomyces cerevisiae [1] (setting [4]); 0.636 ± 0.018 with Saccharomyces cerevisiae [1] (setting [5]); 0.726 ± 0.016 with Saccharomyces cerevisiae [1] (setting [6]); 0.323 ± 0.0065 with Saccharomyces cerevisiae [1] (setting [7]); 0.355 ± 0.025 in the data set with Saccharomyces cerevisiae [1] (setting [8]). The protein stability index was found to be 0.563 ± 0.0078 in the data set on Saccharomyces cerevisiae [1] (setting [9]) and 0.414 ± 0.036 with Saccharomyces cerevisiae [2].

Regarding ALEFLLLVCRRL, the protein stability index in the data set on Saccharomyces cerevisiae [1] (setting [3]) stood at 0.589 ± 0.026; with Saccharomyces cerevisiae [1] (setting [4]), 0.621 ± 0.024; in the data set with Saccharomyces cerevisiae [1] (setting [5]), 0.457 ± 0.011; in the data set on Saccharomyces cerevisiae [1] (setting [6]), 0.6018 ± 0.0059; in the data set on Saccharomyces cerevisiae [1] (setting [7]), 0.31 ± 0.026; in the data set with Saccharomyces cerevisiae [1] (setting [8]) it was 0.334 ± 0.028. In addition, the protein stability index in the data set on Saccharomyces cerevisiae [1] (setting [9]) came out at 0.517 ± 0.013; in the data set on Saccharomyces cerevisiae [2] it was 0.418 ± 0.012.

In the case of ALFLYNCVVVTD, the protein stability index in the data set on Saccharomyces cerevisiae [1] (setting [3]) was 0.0493 ± 0.0086; in the data set with Saccharomyces cerevisiae [1] (setting [4]), 0.137 ± 0.018; in the data set with Saccharomyces cerevisiae [1] (setting [5]), 0.146 ± 0.04; in the data set with Saccharomyces cerevisiae [1] (setting [6]), 0.25 ± 0.015; with Saccharomyces cerevisiae [1] (setting [7]), 0.132 ± 0.011; with Saccharomyces cerevisiae [1] (setting [8]) it was 0.143 ± 0.045. The protein stability index in the data set with Saccharomyces cerevisiae [1] (setting [9]) came out at 0.188 ± 0.056; with Saccharomyces cerevisiae [2], 0.136 ± 0.0097.

Regarding ALLYIVVGWSLS, the protein stability index with Saccharomyces cerevisiae [1] (setting [3]) stood at 0.0455 ± 0.011; in the data set with Saccharomyces cerevisiae [1] (setting [4]), 0.185 ± 0.033; in the data set with Saccharomyces cerevisiae [1] (setting [5]) it was 0.167 ± 0.026; in the data set on Saccharomyces cerevisiae [1] (setting [6]), 0.285 ± 0.025; with Saccharomyces cerevisiae [1] (setting [7]), 0.12 ± 0.019; in the data set on Saccharomyces cerevisiae [1] (setting [8]), 0.145 ± 0.027. Also, the protein stability index with Saccharomyces cerevisiae [1] (setting [9]) came out at 0.231 ± 0.0024; in the data set with Saccharomyces cerevisiae [2] it was 0.24 ± 0.074.

As to APPRSLSPPLLS, the protein stability index in the data set with Saccharomyces cerevisiae [1] (setting [3]) was determined as 0.6637 ± 0.0036; in the data set with Saccharomyces cerevisiae [1] (setting [4]), 0.701 ± 0.011; in the data set on Saccharomyces cerevisiae [1] (setting [5]), 0.672 ± 0.022; with Saccharomyces cerevisiae [1] (setting [6]), 0.71 ± 0.0073; in the data set on Saccharomyces cerevisiae [1] (setting [7]), 0.679 ± 0.0075; in the data set with Saccharomyces cerevisiae [1] (setting [8]) it was 0.6795 ± 0.0034. Further, in the data set with Saccharomyces cerevisiae [1] (setting [9]), the protein stability index turned out to be 0.689 ± 0.016.

As for FGWLELVWFDLG, the protein stability index in the data set with Saccharomyces cerevisiae [1] (setting [3]) amounted to 0.646 ± 0.0098; in the data set on Saccharomyces cerevisiae [1] (setting [4]) it was 0.684 ± 0.031; in the data set with Saccharomyces cerevisiae [1] (setting [5]) it was 0.525 ± 0.03; in the data set on Saccharomyces cerevisiae [1] (setting [6]), 0.703 ± 0.033; in the data set with Saccharomyces cerevisiae [1] (setting [7]), 0.51 ± 0.034; with Saccharomyces cerevisiae [1] (setting [8]) it was 0.531 ± 0.024. In addition, the protein stability index in the data set on Saccharomyces cerevisiae [1] (setting [9]) turned out to be 0.68 ± 0.039.

GIFYVRTIWSCG: the protein stability index in the data set with Saccharomyces cerevisiae [1] (setting [3]) stood at 0.232 ± 0.025; in the data set with Saccharomyces cerevisiae [1] (setting [4]), 0.348 ± 0.0043; in the data set on Saccharomyces cerevisiae [1] (setting [5]) it was 0.192 ± 0.014; in the data set on Saccharomyces cerevisiae [1] (setting [6]), 0.3813 ± 0.0011; in the data set with Saccharomyces cerevisiae [1] (setting [7]), 0.1446 ± 0.00063; in the data set with Saccharomyces cerevisiae [1] (setting [8]), 0.17 ± 0.017. For the same sequence, the protein stability index in the data set with Saccharomyces cerevisiae [1] (setting [9]) was 0.332 ± 0.011.

Consider GRWGGYVGREWG, for which the protein stability index in the data set with Saccharomyces cerevisiae [1] (setting [3]) is 0.497 ± 0.045; in the data set with Saccharomyces cerevisiae [1] (setting [4]), 0.522 ± 0.025; in the data set on Saccharomyces cerevisiae [1] (setting [5]), 0.442 ± 0.0056; with Saccharomyces cerevisiae [1] (setting [6]), 0.482 ± 0.017; in the data set on Saccharomyces cerevisiae [1] (setting [7]) it was 0.4402 ± 0.00068; in the data set with Saccharomyces cerevisiae [1] (setting [8]), 0.458 ± 0.0072. The sequence also yielded a protein stability index in the data set on Saccharomyces cerevisiae [1] (setting [9]) of 0.461 ± 0.017.

The values above are taken from the supplement of paper PMC10724198.
